The record followed here is US20190336574A1 (TRUSTEES OF PRINCETON UNIVERSITY, published 2019).

Sequences and labels used below:
B1: GST-MTDH (364-582), wild type (other)
chain: YQWDVSRNQPYIDDEWSGLNGLSSADPNSDWNAPAEEWGNWVDEERASLLKSQEPIPDDQKVSDDDKEKGEGALPTGKSKKKKKKKKKQGEDNSTAQDTEELEKEIREDLPVNTSKTRPKQEKAFSLKTISTSDPAEVLVKNSQPIKTLPPATSTEPSVILSKSDSDKSSSQVPPILQETDKSKSNTKQNSVPPSQTKSETSWESPKQIKKKKKARRET
notes: not shown: N-terminal GST tag with TEV site, pQlink vector
B2: GST-MTDH (364-582) E400A (other)
chain: YQWDVSRNQPYIDDEWSGLNGLSSADPNSDWNAPAEAWGNWVDEERASLLKSQEPIPDDQKVSDDDKEKGEGALPTGKSKKKKKKKKKQGEDNSTAQDTEELEKEIREDLPVNTSKTRPKQEKAFSLKTISTSDPAEVLVKNSQPIKTLPPATSTEPSVILSKSDSDKSSSQVPPILQETDKSKSNTKQNSVPPSQTKSETSWESPKQIKKKKKARRET
notes: as for B1
B3: GST-MTDH (364-582) D389R (other)
chain: YQWDVSRNQPYIDDEWSGLNGLSSARPNSDWNAPAEEWGNWVDEERASLLKSQEPIPDDQKVSDDDKEKGEGALPTGKSKKKKKKKKKQGEDNSTAQDTEELEKEIREDLPVNTSKTRPKQEKAFSLKTISTSDPAEVLVKNSQPIKTLPPATSTEPSVILSKSDSDKSSSQVPPILQETDKSKSNTKQNSVPPSQTKSETSWESPKQIKKKKKARRET
notes: as for B1
B4: GST-MTDH (364-582) E400R (other)
chain: YQWDVSRNQPYIDDEWSGLNGLSSADPNSDWNAPAERWGNWVDEERASLLKSQEPIPDDQKVSDDDKEKGEGALPTGKSKKKKKKKKKQGEDNSTAQDTEELEKEIREDLPVNTSKTRPKQEKAFSLKTISTSDPAEVLVKNSQPIKTLPPATSTEPSVILSKSDSDKSSSQVPPILQETDKSKSNTKQNSVPPSQTKSETSWESPKQIKKKKKARRET
notes: as for B1
B5: GST-MTDH (364-582) N395A (other)
chain: YQWDVSRNQPYIDDEWSGLNGLSSADPNSDWAAPAEEWGNWVDEERASLLKSQEPIPDDQKVSDDDKEKGEGALPTGKSKKKKKKKKKQGEDNSTAQDTEELEKEIREDLPVNTSKTRPKQEKAFSLKTISTSDPAEVLVKNSQPIKTLPPATSTEPSVILSKSDSDKSSSQVPPILQETDKSKSNTKQNSVPPSQTKSETSWESPKQIKKKKKARRET
notes: as for B1
B6: His-SND1(16-339) P43G/R324E (protein)
single chain: VPTVQRGIIKMVLSGCAIIVRGQPRGGGPPERQINLSNIRAGNLARRAAATQPDAKDTPDEPWAFPAREFLRKKLIGKEVCFTIENKTPQGREYGMIYLGKDTNGENIAESLVAEGLATRREGMRANNPEQNRLSECEEQAKAAKKGMWSEGNGSHTIRDLKYTIENPRHFVDSHHQKPVNAIIEHVRDGSVVRALLLPDYYLVTVMLSGIKCPTFRREADGSETPEPFAAEAKFFTESRLLQRDVQIILESCHNQNILGTILHPNGNITELLLKEGFARCVDWSIAVYTRGAEKLRAAERFAKERRLEIWRDYVAPTANLDQK
B7: His-SND1 (16-339), SN1/2 domains, wild type (other)
chain: VPTVQRGIIKMVLSGCAIIVRGQPRGGPPPERQINLSNIRAGNLARRAAATQPDAKDTPDEPWAFPAREFLRKKLIGKEVCFTIENKTPQGREYGMIYLGKDTNGENIAESLVAEGLATRREGMRANNPEQNRLSECEEQAKAAKKGMWSEGNGSHTIRDLKYTIENPRHFVDSHHQKPVNAIIEHVRDGSVVRALLLPDYYLVTVMLSGIKCPTFRREADGSETPEPFAAEAKFFTESRLLQRDVQIILESCHNQNILGTILHPNGNITELLLKEGFARCVDWSIAVYTRGAEKLRAAERFAKERRLRIWRDYVAPTANLDQK
notes: also called His6-SND1 harboring the SN1/2 domains; not shown: N-terminal His tag (His6, His8 or His) with TEV site, pQlink vector
B8: SND1 (16-339) R316E (negative control mutation outside the interface) (other)
chain: VPTVQRGIIKMVLSGCAIIVRGQPRGGPPPERQINLSNIRAGNLARRAAATQPDAKDTPDEPWAFPAREFLRKKLIGKEVCFTIENKTPQGREYGMIYLGKDTNGENIAESLVAEGLATRREGMRANNPEQNRLSECEEQAKAAKKGMWSEGNGSHTIRDLKYTIENPRHFVDSHHQKPVNAIIEHVRDGSVVRALLLPDYYLVTVMLSGIKCPTFRREADGSETPEPFAAEAKFFTESRLLQRDVQIILESCHNQNILGTILHPNGNITELLLKEGFARCVDWSIAVYTRGAEKLRAAEEFAKERRLRIWRDYVAPTANLDQK
notes: not shown: N-terminal His tag (His6, His8 or His) with TEV site, pQlink vector
B9: SND1 (16-339) F250A (other)
chain: VPTVQRGIIKMVLSGCAIIVRGQPRGGPPPERQINLSNIRAGNLARRAAATQPDAKDTPDEPWAFPAREFLRKKLIGKEVCFTIENKTPQGREYGMIYLGKDTNGENIAESLVAEGLATRREGMRANNPEQNRLSECEEQAKAAKKGMWSEGNGSHTIRDLKYTIENPRHFVDSHHQKPVNAIIEHVRDGSVVRALLLPDYYLVTVMLSGIKCPTFRREADGSETPEPFAAEAKAFTESRLLQRDVQIILESCHNQNILGTILHPNGNITELLLKEGFARCVDWSIAVYTRGAEKLRAAERFAKERRLRIWRDYVAPTANLDQK
notes: as for B8
B10: SND1 (16-339) R324E (other)
chain: VPTVQRGIIKMVLSGCAIIVRGQPRGGPPPERQINLSNIRAGNLARRAAATQPDAKDTPDEPWAFPAREFLRKKLIGKEVCFTIENKTPQGREYGMIYLGKDTNGENIAESLVAEGLATRREGMRANNPEQNRLSECEEQAKAAKKGMWSEGNGSHTIRDLKYTIENPRHFVDSHHQKPVNAIIEHVRDGSVVRALLLPDYYLVTVMLSGIKCPTFRREADGSETPEPFAAEAKFFTESRLLQRDVQIILESCHNQNILGTILHPNGNITELLLKEGFARCVDWSIAVYTRGAEKLRAAERFAKERRLEIWRDYVAPTANLDQK
notes: as for B8
B11: SND1 (16-339) R255E (other)
chain: VPTVQRGIIKMVLSGCAIIVRGQPRGGPPPERQINLSNIRAGNLARRAAATQPDAKDTPDEPWAFPAREFLRKKLIGKEVCFTIENKTPQGREYGMIYLGKDTNGENIAESLVAEGLATRREGMRANNPEQNRLSECEEQAKAAKKGMWSEGNGSHTIRDLKYTIENPRHFVDSHHQKPVNAIIEHVRDGSVVRALLLPDYYLVTVMLSGIKCPTFRREADGSETPEPFAAEAKFFTESELLQRDVQIILESCHNQNILGTILHPNGNITELLLKEGFARCVDWSIAVYTRGAEKLRAAERFAKERRLRIWRDYVAPTANLDQK
notes: as for B8
B12: His-SND1(16-339) P43G (other)
single chain: VPTVQRGIIKMVLSGCAIIVRGQPRGGGPPERQINLSNIRAGNLARRAAATQPDAKDTPDEPWAFPAREFLRKKLIGKEVCFTIENKTPQGREYGMIYLGKDTNGENIAESLVAEGLATRREGMRANNPEQNRLSECEEQAKAAKKGMWSEGNGSHTIRDLKYTIENPRHFVDSHHQKPVNAIIEHVRDGSVVRALLLPDYYLVTVMLSGIKCPTFRREADGSETPEPFAAEAKFFTESRLLQRDVQIILESCHNQNILGTILHPNGNITELLLKEGFARCVDWSIAVYTRGAEKLRAAERFAKERRLRIWRDYVAPTANLDQK
notes: mutant named only on the sheet
B13: SND1 (16-339) R324A (other)
chain: VPTVQRGIIKMVLSGCAIIVRGQPRGGPPPERQINLSNIRAGNLARRAAATQPDAKDTPDEPWAFPAREFLRKKLIGKEVCFTIENKTPQGREYGMIYLGKDTNGENIAESLVAEGLATRREGMRANNPEQNRLSECEEQAKAAKKGMWSEGNGSHTIRDLKYTIENPRHFVDSHHQKPVNAIIEHVRDGSVVRALLLPDYYLVTVMLSGIKCPTFRREADGSETPEPFAAEAKFFTESRLLQRDVQIILESCHNQNILGTILHPNGNITELLLKEGFARCVDWSIAVYTRGAEKLRAAERFAKERRLAIWRDYVAPTANLDQK
notes: as for B8
B14: SND1 (16-339) Δ39-43 (deletion in the SN1 Lβ2-β3 loop) (other)
chain: VPTVQRGIIKMVLSGCAIIVRGQPPERQINLSNIRAGNLARRAAATQPDAKDTPDEPWAFPAREFLRKKLIGKEVCFTIENKTPQGREYGMIYLGKDTNGENIAESLVAEGLATRREGMRANNPEQNRLSECEEQAKAAKKGMWSEGNGSHTIRDLKYTIENPRHFVDSHHQKPVNAIIEHVRDGSVVRALLLPDYYLVTVMLSGIKCPTFRREADGSETPEPFAAEAKFFTESRLLQRDVQIILESCHNQNILGTILHPNGNITELLLKEGFARCVDWSIAVYTRGAEKLRAAERFAKERRLRIWRDYVAPTANLDQK
notes: also called 439-43; not shown: N-terminal His tag (His6, His8 or His) with TEV site, pQlink vector

For the first experiment, the target named is B7. Put plainly: GST pull-down on glutathione resin, SDS-PAGE, Coomassie blue; normalised percentage of binding, mean±SEM of three experiments. The text has this:
(§1) The proteins bound to GS4B were examined on SDS-PAGE and visualized by Coomassie blue staining. […] The bound proteins were examined as in (FIG. 22A). For both (FIG. 22A) and (FIG. 22B), experiments were repeated three times; representative results are shown. The normalized percentage of binding was averaged from three experiments; mean±SEM was shown below the data. (FIG. 22C) HEK293T cells were transfected with human HA-SND1, WT Myc-MTDH or Myc-MTDH with indicated single point mutation. Lysates were immunoprecipitated with anti-Myc antibody and immunoblotted with the indicated antibodies. (FIG. 22D) HEK293T cells were transfected with human Myc-MTDH, WT HA-SND1 or mutant HA-SND1 with indicated single point mutations or deletions. Lysates were immunoprecipitated with anti-Myc and immunoblotted with the indicated antibodies.
(§2) GST-Mediated Pull-Down Assay: ˜20 μg of GST-MTDH (different truncation forms and site mutants) was bound to 10 μl of glutathione resin via GST tag. The resin was washed with 200 μl assay buffer (25 mM Tris, PH8.0, 150 mM NaCl, 3 mM DTT) three times to remove the excess unbound protein. […] The mixture was washed with 200 μl assay buffer twice before examined by SDS-PAGE, and visualized by Coomassie blue staining. The experiments were repeated 3 times and the ratio of SND1 associated with GST-MTDH was analyzed by ImageJ.
Identification of MTDH and SND1 mutants deficient in binding: To gain insight into how the interface characterized above contributes to MTDH-SND1 interaction, structure-guided mutagenesis studies were performed.
For the molecule B1, the “% Maximum binding” value came to 100%.

On to B2, for which the “% Maximum binding” value is 80%.

For the molecule B3, the “% Maximum binding” value was 60%.

Take B4: the “% Maximum binding” value is 70%.

Regarding B5, the “% Maximum binding” value came out at 84%.

Another experiment concerns the target B1. Put plainly: pull-down by GST-MTDH (364-582) on glutathione resin, SDS-PAGE, Coomassie blue; normalised percentage of binding, mean±SEM of three experiments.
Excerpt: as §1, §2
In the case of B6, the % Maximum binding was 9%.

Regarding B7, the “% Maximum binding” value was determined as 100%.

As for B8, the “% Maximum binding” value stood at 88%.

On to B9, for which the “% Maximum binding” value was 9%.

Regarding B10, the “% Maximum binding” value worked out at 26%.

Regarding B11, the “% Maximum binding” value came out at 2%.

Consider B12, for which the “% Maximum binding” value was 67%.

Regarding B13, the “% Maximum binding” value was determined as 70%.

On to B14, for which the “% Maximum binding” value worked out at 2%.
